Data: the MegaScale stability set (Tsuboyama et al. 2023)

B1: 5KPH (parent)
chain: EEKRQVKQVAKEKLLEQSPNSKVQVRRVQKQGNTIRVELELRTNGKKENYTVEVERQGNTWTVKRITRT

Variants of: B1
Test: folding stability dG (cDNA display proteolysis); higher = more stable
Conditions: PBS, room temperature

| Variant | folding stability dG [kcal/mol] |
| --- | --- |
| EEKRQVKQVAKEKLLEQSPNSKVQVRRVDKQGNTIRVELELRTNGKKENYTVEVERQGNTWTVKRITRT [Q29D] | 3.75 |
| EEKRQVKQVAKEKLLEQSPNSKVQVRRVWKQGNTIRVELELRTNGKKENYTVEVERQGNTWTVKRITRT [Q29W] | 4.58 |
| EEKRQVKQVAKEKLLEQSPNSKVQVRRVCKQGNTIRVELELRTNGKKENYTVEVERQGNTWTVKRITRT [Q29C] | 3.9 |
| EEKRQVKQVAKEKLLEQSPNSKVQVRRVRKQGNTIRVELELRTNGKKENYTVEVERQGNTWTVKRITRT [Q29R] | 4.17 |
| EEKRQVKQVAKEKLLEQSPNSKVQVRRVGKQGNTIRVELELRTNGKKENYTVEVERQGNTWTVKRITRT [Q29G] | 3.42 |
| EEKRQVKQVAKEKLLEQSPNSKVQVRRVIKQGNTIRVELELRTNGKKENYTVEVERQGNTWTVKRITRT [Q29I] | 4.24 |
| EEKRQVKQVAKEKLLEQSPNSKVQVRRVMKQGNTIRVELELRTNGKKENYTVEVERQGNTWTVKRITRT [Q29M] | 4.3 |
| EEKRQVKQVAKEKLLEQSPNSKVQVRRVPKQGNTIRVELELRTNGKKENYTVEVERQGNTWTVKRITRT [Q29P] | 1.02 |
| EEKRQVKQVAKEKLLEQSPNSKVQVRRVKKQGNTIRVELELRTNGKKENYTVEVERQGNTWTVKRITRT [Q29K] | 3.75 |
| EEKRQVKQVAKEKLLEQSPNSKVQVRRVYKQGNTIRVELELRTNGKKENYTVEVERQGNTWTVKRITRT [Q29Y] | 4.51 |
| EEKRQVKQVAKEKLLEQSPNSKVQVRRVNKQGNTIRVELELRTNGKKENYTVEVERQGNTWTVKRITRT [Q29N] | 3.83 |
| EEKRQVKQVAKEKLLEQSPNSKVQVRRVAKQGNTIRVELELRTNGKKENYTVEVERQGNTWTVKRITRT [Q29A] | 3.84 |
| EEKRQVKQVAKEKLLEQSPNSKVQVRRVSKQGNTIRVELELRTNGKKENYTVEVERQGNTWTVKRITRT [Q29S] | 4.22 |
| EEKRQVKQVAKEKLLEQSPNSKVQVRRVTKQGNTIRVELELRTNGKKENYTVEVERQGNTWTVKRITRT [Q29T] | 4.33 |
| EEKRQVKQVAKEKLLEQSPNSKVQVRRVFKQGNTIRVELELRTNGKKENYTVEVERQGNTWTVKRITRT [Q29F] | 4.45 |
| EEKRQVKQVAKEKLLEQSPNSKVQVRRVHKQGNTIRVELELRTNGKKENYTVEVERQGNTWTVKRITRT [Q29H] | 4.18 |
| EEKRQVKQVAKEKLLEQSPNSKVQVRRVEKQGNTIRVELELRTNGKKENYTVEVERQGNTWTVKRITRT [Q29E] | 3.96 |
| EEKRQVKQVAKEKLLEQSPNSKVQVRRVVKQGNTIRVELELRTNGKKENYTVEVERQGNTWTVKRITRT [Q29V] | 4.08 |
| EEKRQVKQVAKEKLLEQSPNSKVQVRRVQIQGNTIRVELELRTNGKKENYTVEVERQGNTWTVKRITRT [K30I] | 4.35 |
| EEKRQVKQVAKEKLLEQSPNSKVQVRRVQNQGNTIRVELELRTNGKKENYTVEVERQGNTWTVKRITRT [K30N] | 3.76 |

| Variant | folding stability dG [kcal/mol] |
| --- | --- |
| EEKRQVKQVAKEKLLEQSPNSKVQVRRVQTQGNTIRVELELRTNGKKENYTVEVERQGNTWTVKRITRT [K30T] | 4.14 |
| EEKRQVKQVAKEKLLEQSPNSKVQVRRVQDQGNTIRVELELRTNGKKENYTVEVERQGNTWTVKRITRT [K30D] | 3.8 |
| EEKRQVKQVAKEKLLEQSPNSKVQVRRVQYQGNTIRVELELRTNGKKENYTVEVERQGNTWTVKRITRT [K30Y] | 4.7 |
| EEKRQVKQVAKEKLLEQSPNSKVQVRRVQSQGNTIRVELELRTNGKKENYTVEVERQGNTWTVKRITRT [K30S] | 4.32 |
| EEKRQVKQVAKEKLLEQSPNSKVQVRRVQVQGNTIRVELELRTNGKKENYTVEVERQGNTWTVKRITRT [K30V] | 4.33 |
| EEKRQVKQVAKEKLLEQSPNSKVQVRRVQWQGNTIRVELELRTNGKKENYTVEVERQGNTWTVKRITRT [K30W] | 4.64 |
| EEKRQVKQVAKEKLLEQSPNSKVQVRRVQRQGNTIRVELELRTNGKKENYTVEVERQGNTWTVKRITRT [K30R] | 4 |
| EEKRQVKQVAKEKLLEQSPNSKVQVRRVQGQGNTIRVELELRTNGKKENYTVEVERQGNTWTVKRITRT [K30G] | 4.08 |
| EEKRQVKQVAKEKLLEQSPNSKVQVRRVQCQGNTIRVELELRTNGKKENYTVEVERQGNTWTVKRITRT [K30C] | 3.69 |
| EEKRQVKQVAKEKLLEQSPNSKVQVRRVQPQGNTIRVELELRTNGKKENYTVEVERQGNTWTVKRITRT [K30P] | 3.79 |
| EEKRQVKQVAKEKLLEQSPNSKVQVRRVQAQGNTIRVELELRTNGKKENYTVEVERQGNTWTVKRITRT [K30A] | 4.22 |
| EEKRQVKQVAKEKLLEQSPNSKVQVRRVQLQGNTIRVELELRTNGKKENYTVEVERQGNTWTVKRITRT [K30L] | 4.03 |
| EEKRQVKQVAKEKLLEQSPNSKVQVRRVQQQGNTIRVELELRTNGKKENYTVEVERQGNTWTVKRITRT [K30Q] | 4.25 |
| EEKRQVKQVAKEKLLEQSPNSKVQVRRVQFQGNTIRVELELRTNGKKENYTVEVERQGNTWTVKRITRT [K30F] | 4.62 |
| EEKRQVKQVAKEKLLEQSPNSKVQVRRVQEQGNTIRVELELRTNGKKENYTVEVERQGNTWTVKRITRT [K30E] | 3.78 |
| EEKRQVKQVAKEKLLEQSPNSKVQVRRVQMQGNTIRVELELRTNGKKENYTVEVERQGNTWTVKRITRT [K30M] | 4.28 |
| EEKRQVKQVAKEKLLEQSPNSKVQVRRVQHQGNTIRVELELRTNGKKENYTVEVERQGNTWTVKRITRT [K30H] | 4.05 |
| EEKRQVKQVAKEKLLEQSPNSKVQVRRVQKQANTIRVELELRTNGKKENYTVEVERQGNTWTVKRITRT [G32A] | 3.18 |
| EEKRQVKQVAKEKLLEQSPNSKVQVRRVQKQCNTIRVELELRTNGKKENYTVEVERQGNTWTVKRITRT [G32C] | 3.07 |
